Data taken from the Human Domainome abundance scans (Beltran et al. 2025).
± gives the uncertainty stated by the source.

B1: Far upstream element-binding protein 1, residues 184 to 257; numbered along this chain, Q96AE4 (parent)
chain: GNAVQEIMIPASKAGLVIGKGGETIKQLQERAGVKMVMIQDGPQNTGADKPLRITGDPYKVQQAKEMVLELIRD

Variants of: B1
Assay: abundance fitness (aPCA) (normalised: wild type 0, dead -1); higher = more abundant; growth selection in yeast, the domain comes from the species named
Settings: Homo sapiens

Variant	abundance fitness
I7Y	-0.597 ± 0.058
I7R	-0.861 ± 0.035
I7E	-0.646 ± 0.041
K65L	-0.211 ± 0.03
K65S	-0.102 ± 0.03
K65T	-0.057 ± 0.034
K65V	-0.037 ± 0.031
K65W	-0.439 ± 0.038
K26E	-0.093 ± 0.035
K26N	-0.09 ± 0.053
K26R	-0.021 ± 0.027
K26M	-0.122 ± 0.044
K26L	-0.087 ± 0.032
V4N	0.073 ± 0.048
V4T	0.029 ± 0.036
V4P	-0.56 ± 0.048
V4D	-0.063 ± 0.043
L52S	-0.918 ± 0.047
L52N	-0.746 ± 0.075
L52W	-0.738 ± 0.044
L52Q	-0.97 ± 0.076
L52G	-0.886 ± 0.037
G22F	-0.145 ± 0.054
G22A	0.003 ± 0.032

Variant	abundance fitness
G22C	-0.106 ± 0.042
K20M	-0.112 ± 0.04
K20A	0.02 ± 0.031
K20G	-0.105 ± 0.031
K20N	-0.016 ± 0.049
K20F	-0.07 ± 0.049
K20I	-0.129 ± 0.051
I18L	0.008 ± 0.031
I18E	-0.028 ± 0.035
I18H	-0.009 ± 0.046
I18C	-0.12 ± 0.046
R73W	-0.033 ± 0.036
R73H	0.031 ± 0.053
R73C	-0.002 ± 0.043
P10A	-0.468 ± 0.035
P10N	-0.299 ± 0.054
P10T	-0.456 ± 0.042
P10W	-1.22 ± 0.082
Q40M	-0.085 ± 0.041
Q40R	-0.053 ± 0.028
Q40S	-0.042 ± 0.032
Q40F	-0.027 ± 0.052
Q40D	-0.008 ± 0.05
G15Q	-0.031 ± 0.039

Variant	abundance fitness
G15N	0.011 ± 0.053
G15L	-0.026 ± 0.031
G15V	-0.026 ± 0.03
L71Q	-0.082 ± 0.043
L71M	-0.031 ± 0.04
L71I	0.025 ± 0.048
I9P	-0.905 ± 0.055
I9W	-0.964 ± 0.049
I9Q	-0.768 ± 0.055
I9N	-0.785 ± 0.065
I9L	-0.087 ± 0.029
I9A	-1 ± 0.056
T55H	-0.096 ± 0.054
T55R	-0.152 ± 0.027
T55I	-0.023 ± 0.049
R53G	-0.52 ± 0.03
R53D	-0.616 ± 0.063
R53F	-0.116 ± 0.056
R53C	-0.111 ± 0.048
R53M	-0.031 ± 0.044
R53K	-0.025 ± 0.041
V68E	-0.427 ± 0.035
V68N	-0.385 ± 0.047
V68F	-0.658 ± 0.057

Variant	abundance fitness
D49N	-0.034 ± 0.045
D49G	-0.084 ± 0.026
D49W	-0.114 ± 0.035
D49Y	-0.015 ± 0.052
D49H	-0.012 ± 0.048
L16K	-0.008 ± 0.036
L16S	-0.122 ± 0.031
L16E	-0.06 ± 0.036
L16Q	-0.093 ± 0.036
L16H	-0.15 ± 0.047
L16R	-0.087 ± 0.026
G33T	-0.29 ± 0.039
G33R	-0.119 ± 0.027
G33S	-0.123 ± 0.032
G33N	-0.063 ± 0.046
G33Y	-0.534 ± 0.063
G33H	-0.1 ± 0.058
I25P	-0.64 ± 0.048
I25L	0.002 ± 0.032
I25D	-0.359 ± 0.051
I25M	0.03 ± 0.048
M67R	-0.096 ± 0.026
M67W	-0.124 ± 0.033
M67F	-0.117 ± 0.045

Variant	abundance fitness
V17H	-0.589 ± 0.063
V17G	-0.599 ± 0.032
V17A	-0.427 ± 0.035
V17P	-0.759 ± 0.046
D41E	0.009 ± 0.035
D41N	0.047 ± 0.049
D41V	-0.023 ± 0.031
D41R	-0.052 ± 0.028
D41M	-0.089 ± 0.045
D41Q	-0.006 ± 0.041
D41Y	-0.139 ± 0.054
D41H	-0.048 ± 0.05
A64I	-0.561 ± 0.054
A64K	-0.758 ± 0.053
A64R	-0.853 ± 0.035
A64H	-0.967 ± 0.086
A64Q	-0.695 ± 0.049
A64Y	-0.98 ± 0.11
A14D	-0.109 ± 0.05
A14E	-0.014 ± 0.041
G56R	-1.04 ± 0.044
G56I	-1.14 ± 0.17
G56F	-0.971 ± 0.2
G56P	-1.18 ± 0.073

Variant	abundance fitness
I39M	0.014 ± 0.04
I39S	-0.02 ± 0.03
I39Y	-0.08 ± 0.05
I39W	-0.096 ± 0.036
I54G	-0.913 ± 0.039
I54D	-0.829 ± 0.075
I54S	-0.522 ± 0.045
I54N	-1.22 ± 0.15
I54Q	-0.902 ± 0.068
I54R	-1.06 ± 0.047
I54A	-0.807 ± 0.053
Y59K	0.036 ± 0.036
Y59M	-0.043 ± 0.035
Y59E	0.009 ± 0.032
Y59W	0.021 ± 0.032
Y59F	-0.003 ± 0.05
Y59N	0.047 ± 0.047
Y59R	0.032 ± 0.025
G47N	-0.034 ± 0.052
G47H	-0.167 ± 0.06
G47D	-0.043 ± 0.041
G47M	-0.043 ± 0.042
P51D	-0.358 ± 0.049
P51A	-0.011 ± 0.033

Variant	abundance fitness
P51H	-0.026 ± 0.045
N2L	0.09 ± 0.033
N2D	-0.224 ± 0.047
G19D	-0.204 ± 0.046
M36K	-0.78 ± 0.06
M36W	-1 ± 0.052
M36V	-0.231 ± 0.032
M36H	-0.81 ± 0.093
M36E	-0.582 ± 0.044
M36S	-0.556 ± 0.035
K13I	-0.015 ± 0.047
K13V	-0.091 ± 0.031
K13Q	-0.035 ± 0.04
K13Y	-0.091 ± 0.056
G1P	-0.212 ± 0.093
G1Y	-0.074 ± 0.067
G1Q	-0.26 ± 0.13
G1A	-0.075 ± 0.039
G1D	-0.067 ± 0.042
G1W	-0.502 ± 0.056
G1C	-0.127 ± 0.053
G1I	0.193 ± 0.086
M38T	-0.21 ± 0.035
